Test results taken from publication PMC4785722 (Journal of molecular biology, 2009).

Target: the molecule itself
Test: native MS

B1: bacteriophage MS2 coat protein dimer (natural protein)
chain: ASNFTQFVLVDNGGTGDVTVAPSNFANGVAEWISSNSRSQAYKVTCSVRQSSAQNRKYTIKVEVPKVATQTVGGVELPVAAWRSYLNMELTIPIFATNSDCELIVKAMQGLLKDGNPIPSAIAANSGIY
- stoichiometry N: 10 CP2 dimers
